Results as given in patent US20200040057A1 (IMMATICS BIOTECHNOLOGIES, published 2020).

How the values were obtained:
[1] = target: HLA-B*07 (human); experiment: UV peptide exchange ELISA; + = yield >10%
[2] = target: HLA-B*07 (human); experiment: UV peptide exchange ELISA; ++ = yield >20%
[3] = target: HLA-A*02:01 (human); experiment: control peptide-MHC complex on beads, in vitro T-cell priming
Experimental: 800.000 beads/200 μl were coated in 96-well plates in the presence of 4×12.5 ng different biotin-pMHC, washed and 600 ng biotin anti-CD28 were added subsequently in a volume of 200 μl. Stimulations were initiated in 96-well plates by co-incubating 1×10⁶ CD8+ T cells with 2×10⁵ washed coated beads in 200 μl TCM supplemented with 5 ng/ml IL-12 (PromoCell) for 3 days at 37° C. Half of the medium was then exchanged by fresh TCM supplemented with 80 U/ml IL-2 and incubating was continued for four days at 37° C. This stimulation cycle was performed for a total of three times. […] Finally, multimeric analyses were performed by staining the cells with Live/dead near IR dye (Invitrogen, Karlsruhe, Germany), CD8-FITC antibody clone SK1 (BD, Heidelberg, Germany) and fluorescent pMHC multimers. For analysis, a BD LSRII SORP cytometer equipped with appropriate lasers and filters was used. Peptide specific cells were calculated as percentage of total CD8+ cells. Evaluation of multimeric analysis was done using the FlowJo software (Tree Star, Oregon, USA). In vitro priming of specific multimer+CD8+ lymphocytes was detected by comparing to negative control stimulations.

| Binder | peptide exchange yield [1] [%] | other results |
| --- | --- | --- |
| YPLQQTNVY | 10 to 20 | – |
| KPSAVKDSIY | – | peptide exchange yield [2]: 20 to 50% |
| KPGLPGLK | 10 to 20 | – |
| KATEYVHSL | 10 to 20 | – |
| LPLKFFPII | 10 to 20 | – |
| FLIPRAGWLAGL | – | peptide exchange yield [2]: 20 to 50% |
| LPLQQYKLV | 10 to 20 | – |
| MLKTTLTAF | 10 to 20 | – |
| ALLLRGVTL | – | peptide exchange yield [2]: 20 to 50% |
| AVSSHHNVI | – | peptide exchange yield [2]: 20 to 50% |
| YLLPAIVHI (Negative control peptide for stimulations; also called 447) [DDX5-001 (YLLPAIVHI from DDX5)] | – | binding result [3]: binds |
| IAYPSLREAAL | – | peptide exchange yield [2]: 20 to 50% |
| LPKPDLPQLI | 10 to 20 | – |
| KSKQVITLL | 10 to 20 | – |

The next lines start with results.

| peptide exchange yield [1] [%] | Binder | other results |
| --- | --- | --- |
| 10 to 20 | IPFSVDEI | – |
| 10 to 20 | SAAARALLP | – |
| 10 to 20 | IPLEIQKL | – |
| 10 to 20 | AQNPAGTAL | – |
| 10 to 20 | MPREDAHF | – |
| 10 to 20 | VPLPAGGGTVLT | – |
